Results as given in the FLAb antibody collection (doi:10.1101/2023.12.08.570889).

Target: TSLP, Q969D9
Experiment: Kd (SPR)

Row | Binder | Kd [nM]
1 | unnamed (protein) chain 1: QMQLVESGGGVVQPGRSLRLSCAASGFTFSTYAMHWVRQAPGKGLEWVAVIWYDGSNKHYADSVKGRFTITRDNSKNTLNLQMNSLRAEDTAVYYCARSPRYDEYYEAFDVWGQGTMVTVSS chain 2: SYVLTQPPSVSVAPGQTARITCGGNNLGSKSVHWYQQKPGQAPVLVVYDDSDRPSWIPERFSGSNSGNTATLTISRGEAGDEADYYCQVWDSSSDHVVFGGGTKLTVL | 219
2 | unnamed (protein) chain 1: QMQLVESGGGVVQPGRSLRLSCAASGFTFSTFAMHWVRQAPGKGLEWVAVIWYDGSNKHYADSVKGRFTITRDNSKNTLNLQMNSLRAEDTAVYYCARAPRYDDRYEAFDVWGQGTMVTVSS chain 2: SYVLTQPPSVSVAPGQTARITCGGNNLGSKSVHWYQQKPGQAPVLVVYDDSDRPSWIPERFSGSNSGNTATLTISRGEAGDEADYYCQVWDSSSDHVVFGGGTKLTVL | 490
3 | unnamed (protein) chain 1: QMQLVESGGGVVQPGRSLRLSCAASGFTFSTFAMHWVRQAPGKGLEWVAVIWYDGSNKHYADSVKGRFTITRDNSKNTLNLQMNSLRAEDTAVYYCARAPRYDEDYEAFDVWGQGTMVTVSS chain 2: SYVLTQPPSVSVAPGQTARITCGGNNLGSKSVHWYQQKPGQAPVLVVYDDSDRPSWIPERFSGSNSGNTATLTISRGEAGDEADYYCQVWDSSSDHVVFGGGTKLTVL | 148
4 | unnamed (protein) chain 1: QMQLVESGGGVVQPGRSLRLSCAASGFTFSTFAMHWVRQAPGKGLEWVAVIWYDGSNKHYADSVKGRFTITRDNSKNTLNLQMNSLRAEDTAVYYCARAPRYDWYLEAFDVWGQGTMVTVSS chain 2: SYVLTQPPSVSVAPGQTARITCGGNNLGSKSVHWYQQKPGQAPVLVVYDDSDRPSWIPERFSGSNSGNTATLTISRGEAGDEADYYCQVWDSSSDHVVFGGGTKLTVL | 157
5 | unnamed (protein) chain 1: QMQLVESGGGVVQPGRSLRLSCAASGFTFSTYAMHWVRQAPGKGLEWVAVIWYDGSNKHYADSVKGRFTITRDNSKNTLNLQMNSLRAEDTAVYYCARAPRYDEYVEAFDVWGQGTMVTVSS chain 2: SYVLTQPPSVSVAPGQTARITCGGNNLGSKSVHWYQQKPGQAPVLVVYDDSDRPSWIPERFSGSNSGNTATLTISRGEAGDEADYYCQVWDSSSDHVVFGGGTKLTVL | 195
6 | unnamed (protein) chain 1: QMQLVESGGGVVQPGRSLRLSCAASGFTFSTYAMHWVRQAPGKGLEWVAVIWYDGSNKHYADSVKGRFTITRDNSKNTLNLQMNSLRAEDTAVYYCARAPRYDEDYEAFDVWGQGTMVTVSS chain 2: SYVLTQPPSVSVAPGQTARITCGGNNLGSKSVHWYQQKPGQAPVLVVYDDSDRPSWIPERFSGSNSGNTATLTISRGEAGDEADYYCQVWDSSSDHVVFGGGTKLTVL | 184
7 | unnamed (protein) chain 1: QMQLVESGGGVVQPGRSLRLSCAASGFTFSTFAMHWVRQAPGKGLEWVAVIWYDGSNKHYADSVKGRFTITRDNSKNTLNLQMNSLRAEDTAVYYCARSPRYDDYYEAFDVWGQGTMVTVSS chain 2: SYVLTQPPSVSVAPGQTARITCGGNNLGSKSVHWYQQKPGQAPVLVVYDDSDRPSWIPERFSGSNSGNTATLTISRGEAGDEADYYCQVWDSSSDHVVFGGGTKLTVL | 172
8 | unnamed (protein) chain 1: QMQLVESGGGVVQPGRSLRLSCAASGFTFSTYAMHWVRQAPGKGLEWVAVIWYDGSNKHYADSVKGRFTITRDNSKNTLNLQMNSLRAEDTAVYYCARAPRYDDLYEAFDVWGQGTMVTVSS chain 2: SYVLTQPPSVSVAPGQTARITCGGNNLGSKSVHWYQQKPGQAPVLVVYDDSDRPSWIPERFSGSNSGNTATLTISRGEAGDEADYYCQVWDSSSDHVVFGGGTKLTVL | 188

Further binders by falling Kd, results first:

Row | Kd [nM] | Binder
9 | 764 | unnamed (protein) chain 1: QMQLVESGGGVVQPGRSLRLSCAASGFTFSTFAMHWVRQAPGKGLEWVAVIWYDGSNKHYADSVKGRFTITRDNSKNTLNLQMNSLRAEDTAVYYCARAPRYDEYWEAFDVWGQGTMVTVSS chain 2: SYVLTQPPSVSVAPGQTARITCGGNNLGSKSVHWYQQKPGQAPVLVVYDDSDRPSWIPERFSGSNSGNTATLTISRGEAGDEADYYCQVWDSSSDHVVFGGGTKLTVL
10 | 240 | unnamed (protein) chain 1: QMQLVESGGGVVQPGRSLRLSCAASGFTFSTFAMHWVRQAPGKGLEWVAVIWYDGSNKHYADSVKGRFTITRDNSKNTLNLQMNSLRAEDTAVYYCARAPRYDEEYEAFDVWGQGTMVTVSS chain 2: SYVLTQPPSVSVAPGQTARITCGGNNLGSKSVHWYQQKPGQAPVLVVYDDSDRPSWIPERFSGSNSGNTATLTISRGEAGDEADYYCQVWDSSSDHVVFGGGTKLTVL
11 | 224 | unnamed (protein) chain 1: QMQLVESGGGVVQPGRSLRLSCAASGFTFSTYAMHWVRQAPGKGLEWVAVIWYDGSNKHYADSVKGRFTITRDNSKNTLNLQMNSLRAEDTAVYYCARAPRYDEYYEAFDVWGQGTMVTVSS chain 2: SYVLTQPPSVSVAPGQTARITCGGNNLGSKSVHWYQQKPGQAPVLVVYDDSDRPSWIPERFSGSNSGNTATLTISRGEAGDEADYYCQVWDSSSDHVVFGGGTKLTVL
12 | 221 | unnamed (protein) chain 1: QMQLVESGGGVVQPGRSLRLSCAASGFTFSTFAMHWVRQAPGKGLEWVAVIWYDGSNKHYADSVKGRFTITRDNSKNTLNLQMNSLRAEDTAVYYCARAPRYYDYWEAFDVWGQGTMVTVSS chain 2: SYVLTQPPSVSVAPGQTARITCGGNNLGSKSVHWYQQKPGQAPVLVVYDDSDRPSWIPERFSGSNSGNTATLTISRGEAGDEADYYCQVWDSSSDHVVFGGGTKLTVL
13 | 208 | unnamed (protein) chain 1: QMQLVESGGGVVQPGRSLRLSCAASGFTFSTFAMHWVRQAPGKGLEWVAVIWYDGSNKHYADSVKGRFTITRDNSKNTLNLQMNSLRAEDTAVYYCARAPRYYYYYEAFDVWGQGTMVTVSS chain 2: SYVLTQPPSVSVAPGQTARITCGGNNLGSKSVHWYQQKPGQAPVLVVYDDSDRPSWIPERFSGSNSGNTATLTISRGEAGDEADYYCQVWDSSSDHVVFGGGTKLTVL
14 | 188 | unnamed (protein) chain 1: QMQLVESGGGVVQPGRSLRLSCAASGFTFSTFAMHWVRQAPGKGLEWVAVIWYDGSNKHYADSVKGRFTITRDNSKNTLNLQMNSLRAEDTAVYYCARAPRYDDLYEAFDVWGQGTMVTVSS chain 2: SYVLTQPPSVSVAPGQTARITCGGNNLGSKSVHWYQQKPGQAPVLVVYDDSDRPSWIPERFSGSNSGNTATLTISRGEAGDEADYYCQVWDSSSDHVVFGGGTKLTVL
15 | 186 | unnamed (protein) chain 1: QMQLVESGGGVVQPGRSLRLSCAASGFTFSSFAMHWVRQAPGKGLEWVAVIWYDGSNKHYADSVKGRFTITRDNSKNTLNLQMNSLRAEDTAVYYCARAPRYDEYYEAFDVWGQGTMVTVSS chain 2: SYVLTQPPSVSVAPGQTARITCGGNNLGSKSVHWYQQKPGQAPVLVVYDDSDRPSWIPERFSGSNSGNTATLTISRGEAGDEADYYCQVWDSSSDHVVFGGGTKLTVL
16 | 180 | unnamed (protein) chain 1: QMQLVESGGGVVQPGRSLRLSCAASGFTFSTFAMHWVRQAPGKGLEWVAVIWYDGSNKHYADSVKGRFTITRDNSKNTLNLQMNSLRAEDTAVYYCARAPRYDDEYEAFDVWGQGTMVTVSS chain 2: SYVLTQPPSVSVAPGQTARITCGGNNLGSKSVHWYQQKPGQAPVLVVYDDSDRPSWIPERFSGSNSGNTATLTISRGEAGDEADYYCQVWDSSSDHVVFGGGTKLTVL
17 | 159 | unnamed (protein) chain 1: QMQLVESGGGVVQPGRSLRLSCAASGFTFSTFAMHWVRQAPGKGLEWVAVIWYDGSNKHYADSVKGRFTITRDNSKNTLNLQMNSLRAEDTAVYYCARAPRYDDYLEAFDVWGQGTMVTVSS chain 2: SYVLTQPPSVSVAPGQTARITCGGNNLGSKSVHWYQQKPGQAPVLVVYDDSDRPSWIPERFSGSNSGNTATLTISRGEAGDEADYYCQVWDSSSDHVVFGGGTKLTVL
18 | 153 | unnamed (protein) chain 1: QMQLVESGGGVVQPGRSLRLSCAASGFTFSSYAMHWVRQAPGKGLEWVAVIWYDGSNKHYADSVKGRFTITRDNSKNTLNLQMNSLRAEDTAVYYCARAPRYDDYYEAFDVWGQGTMVTVSS chain 2: SYVLTQPPSVSVAPGQTARITCGGNNLGSKSVHWYQQKPGQAPVLVVYDDSDRPSWIPERFSGSNSGNTATLTISRGEAGDEADYYCQVWDSSSDHVVFGGGTKLTVL
19 | 152 | unnamed (protein) chain 1: QMQLVESGGGVVQPGRSLRLSCAASGFTFSTYAMHWVRQAPGKGLEWVAVIWYDGSNKHYADSVKGRFTITRDNSKNTLNLQMNSLRAEDTAVYYCARAPRYDDYLEAFDVWGQGTMVTVSS chain 2: SYVLTQPPSVSVAPGQTARITCGGNNLGSKSVHWYQQKPGQAPVLVVYDDSDRPSWIPERFSGSNSGNTATLTISRGEAGDEADYYCQVWDSSSDHVVFGGGTKLTVL
